Results on one molecule are retold here after US20130059292A1 (APTAMER SCIENCES, published 2013).

This experiment has as its target T1, epidermal growth factor receptor (EGFR) (human, UniProt P00533 25-1210).
T1 construct: Endogenous protein in A431 cell lysate; also called EGF receptor
In words: Co-AP with EGFR aptamer-magnetic agarose beads from EGF-stimulated A431 cell lysate, Western blot. On the technique in general: Immunoblotting shows a protein as a band on a membrane.

Experimental: In order to study additional DxSO₄ effects in Co-AP assays, Co-AP experiments were performed with various DxSO₄ concentrations in a binding buffer. […] The mixed solution was washed four times with a lysis buffer. The bound complex was eluted by 20 mM EDTA in 40 mM HEPES containing 0.1M NaCl.

B1: PDK1 (enzyme, human, UniProt O15530 1-556, looked up)
chain: MARTTSQLYDAVPIQSSVVLCSCPSPSMVRTQTESSTPPGIPGGSRQGPAMDGTAAEPRPGAGSLQHAQPPPQPRKKRPEDFKFGKILGEGSFSTVVLARELATSREYAIKILEKRHIIKENKVPYVTRERDVMSRLDHPFFVKLYFTFQDDEKLYFGLSYAKNGELLKYIRKIGSFDETCTRFYTAEIVSALEYLHGKGIIHRDLKPENILLNEDMHIQITDFGTAKVLSPESKQARANSFVGTAQYVSPELLTEKSACKSSDLWALGCIIYQLVAGLPPFRAGNEYLIFQKIIKLEYDFPEKFFPKARDLVEKLLVLDATKRLGCEEMEGYGPLKAHPFFESVTWENLHQQTPPKLTAYLPAMSEDDEDCYGNYDNLLSQFGCMQVSSSSSSHSLSASDTGLPQRSGSNIEQYIHDLDSNSFELDLQFSEDEKRLLLEKQAGGNPWHQFVENNLILKMGPVDKRKGLFARRRQLLLTEGPHLYYVDPVNKVLKGEIPWSQELRPEAKNFKTFFVHTPNRTYYLMDPSGNAHKWCRKIQEVWRQRYQSHPDAAVQ
notes: also called phosphoinositide dependent kinase 1; PDPK1
Take B1: the binding result was “binds”.
